# Tested on: liver fibrosis in NASH subjects
# Experiment: Simtuzumab clinical studies (SIM 0105/0106) in NASH, CRN fibrosis stage change at week 48
# Type: in vivo, human
# Conditions: SIM study samples
molecule,measurement,value
"simtuzumab (antibody, chains of the INN, looked up, V domains shown) VH: QVQLVQSGAEVKKPGASVKVSCKASGYAFTYYLIEWVRQAPGQGLEWIGVINPGSGGTNYNEKFKGRATITADKSTSTAYMELSSLRSEDTAVYFCARNWMNFDYWGQGTTVTVSS VL: DIVMTQTPLSLSVTPGQPASISCRSSKSLLHSNGNTYLYWFLQKPGQSPQFLIYRMSNLASGVPDRFSGSGSGTDFTLKISRVEAEDVGVYYCMQHLEYPYTFGGGTKVEIK",efficacy on fibrosis stage change,lack of efficacy

# — US20200340060A1, “COMPOSITIONS AND METHODS FOR IDENTIFYING AND TREATING LIVER DISEASES AND MONITORING TREATMENT OUTCOMES” (Gilead Sciences, Inc., priority 2017, published 2020)
